Source: patent US20250108100A1, “C-TERMINAL FRAGMENT OF APOLIPOPROTEIN E AND APPLICATION THEREOF IN INHIBITING y-SECRETASE ACTIVITY” (SYNPHATEC (SHANGHAI) BIOPHARMACEUTICAL TECHNOLOGY CO., LTD., priority 2022, published 2025)

Tested on: primary cultured mouse hippocampal or cortical neurons
Assay: Endogenous Aβ40 in primary cultured mouse cortical or hippocampal neurons (lentivirus, ELISA)
Type: cell-based
Conditions: for endogenously produced Aβ40: lentivirus
Experimental: Primary cultured neurons were derived from the cortex or hippocampus of 16-day embryonic mice. The mouse cortex or hippocampus was obtained under a stereoscope, and was digested at 37° C. for 10 minutes with 20 U/ml papain (Worthington Company). After digestion, the neurons that exist in single-cell form were seeded with 100,000 neurons per well (24-well plate); the neurons were cultured in the neuron culture medium (Neurobasal medium; ThermoFisher Company) containing 2% B27 (ThermoFisher Company) and 1% penicillin/streptomycin; the fresh culture medium was changed once a week.
The experiment was performed according to the standard procedure in the ELISA analysis kit of Invitrogen Company. • a) The target protein was expressed in HEK 293T cell line. Cells were subcultured one day before transfection, and transfection was performed when the degree of cell adhesion reached 70%-80%. The transfection reagent was lipofectamine2000 (ThermoFisher). • b) 4-6 hours post transfection, medium were replaced with fresh cell culture medium. • c) 36-48 hours post transfection, the cell culture medium was collected, and then the ELISA process was performed or the cell culture medium was frozen in a −80° C. refrigerator. • d) 50 μl of standard samples and experimental samples were added to each well of the 96-well plate. • e) 50 μl of human-derived Aβ40 or Aβ42 or mouse-derived Aβ40 detection antibody was added to each well of the 96-well plate. • f) The above samples were shaken gently and placed at room temperature for 3 hours. • g) The liquid in the well were removed, and the plate was washed 4 times with 1× wash buffer. • h) 100 μl of the buffer containing 1× anti-Rabbit IgG HRP was added. • i) The plate was shaken gently and placed at room temperature for […]. • j) The liquid in the well were removed, and the well was washed 4 times with 1× wash buffer. • k) 100 μl of Stabilized Chromogen was added to each well, and the plate was placed in the dark for 30 minutes at room temperature. • l) 100 μl of Stop Solution was added to each well. • m) The absorbance at 450 nm was measured with a microplate reader. 2.4 qRT-PCR
• a) Construction of lentivirus expression plasmids, lentivirus-GFP and lentivirus-ApoE CT, which can be specifically expressed in neurons. • b) The lentivirus vectors were cotransfected with coat protein vectors (PSPAX2 and PMD2G) in HEK 293T cell line. Cells were subcultured one day before transfection, and transfection was performed when the degree of cell adhesion reached 70%-80%. […]
48 hours after transfection of HEK 293T cells and N2A cells, or 4.5 days after lentivirus infection of neurons, media and lysates were collected. Aβ40 and Aβ42 in the culture medium and cell lysates were detected by an Aβ ELISA kit as indicated in the protocol. […]

B1: ApoE CT: C-terminal fragment of ApoE, positions 216-299 of SEQ ID NO: 12; SEQ ID NO: 33 (protein)
chain: ARMEEMGSRTRDRLDEVKEQVAEVRAKLEEQAQQIRLQAEAFQARLKSWFEPLVEDMQRQWAGLVEKVQAAVGTSAAPVPSDNH
reduction in endogenous Aβ40 (mouse cortical and hippocampal neurons, lentiviral infection, vs GFP controls): 30% | endogenously produced Aβ40 (primary cultured mouse cortical neurons): about 73 % of the control group | endogenously produced Aβ40 (primary cultured mouse hippocampal neurons): about 71 % of the control group | endogenously produced Aβ40 (primary cultured mouse neurons, vs GFP control): can reduce the endogenous production of Aβ40
